These results are taken from patent US20250076311A1 (Chugai, published 2025).

Holding throughout (assay): SPR; KD of SG1 / KD of variant
On the technique in general: SPR reads the build-up and loss of mass on a sensor chip optically.

Assay [1] addresses T1, cynomolgus monkey FcγRIIa2 extracellular domain with C-terminal His-tag (cynomolgus monkey).
T1 construct: also called cyno FcγRIIa2; FcgRIIa2
T1 chain: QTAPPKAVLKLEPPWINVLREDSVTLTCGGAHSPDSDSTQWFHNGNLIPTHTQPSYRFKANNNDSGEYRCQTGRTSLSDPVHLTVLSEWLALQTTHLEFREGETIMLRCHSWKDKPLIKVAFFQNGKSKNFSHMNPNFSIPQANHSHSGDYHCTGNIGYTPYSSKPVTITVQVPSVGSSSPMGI

The target in assay [2] is T2, cynomolgus monkey FcγRIIb extracellular domain with C-terminal His-tag (cynomolgus monkey).
T2 construct: also called cyno FcγRIIb; cynoFcγRIIb
T2 chain: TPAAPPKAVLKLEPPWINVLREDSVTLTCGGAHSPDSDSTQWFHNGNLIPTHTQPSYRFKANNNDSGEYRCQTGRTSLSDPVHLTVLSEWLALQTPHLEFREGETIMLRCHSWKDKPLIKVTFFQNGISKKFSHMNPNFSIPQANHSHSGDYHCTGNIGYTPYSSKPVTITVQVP

The target in assay [3] is T3, cynomolgus monkey FcγRIIIaS extracellular domain with C-terminal His-tag (cynomolgus monkey, UniProt Q8SPW2 21-206 at identity 1.00)).
T3 construct: also called cyno FcγRIIIaS; FcgRIIIaS
T3 chain: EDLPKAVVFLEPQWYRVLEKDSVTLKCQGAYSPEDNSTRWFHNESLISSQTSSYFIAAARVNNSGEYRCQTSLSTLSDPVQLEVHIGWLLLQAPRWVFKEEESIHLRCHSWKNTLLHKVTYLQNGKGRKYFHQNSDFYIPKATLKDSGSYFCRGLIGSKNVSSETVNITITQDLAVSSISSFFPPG

For assay [4], the target named is T4, human FcγRIIIaV extracellular domain with C-terminal His-tag (human, UniProt P08637 17-208).
T4 construct: also called human FcgRIIIaV; FcgRIIIaV
T4 sequence (P08637 17-208 F176V): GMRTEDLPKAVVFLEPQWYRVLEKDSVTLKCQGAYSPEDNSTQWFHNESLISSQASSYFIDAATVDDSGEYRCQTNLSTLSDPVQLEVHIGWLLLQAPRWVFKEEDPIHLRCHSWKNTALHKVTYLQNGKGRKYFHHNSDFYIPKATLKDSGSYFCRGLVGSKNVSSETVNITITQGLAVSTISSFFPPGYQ

Assay [5] addresses T5, cynomolgus monkey FcγRIIa3 extracellular domain with C-terminal His-tag (cynomolgus monkey).
T5 construct: also called cyno FcγRIIa3; FcgRIIa3
T5 chain: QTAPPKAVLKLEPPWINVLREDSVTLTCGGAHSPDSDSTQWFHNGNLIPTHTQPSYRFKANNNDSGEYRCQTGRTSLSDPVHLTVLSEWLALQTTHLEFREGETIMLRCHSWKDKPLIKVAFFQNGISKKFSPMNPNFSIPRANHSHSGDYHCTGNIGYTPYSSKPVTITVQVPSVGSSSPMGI

Assay [6] addresses T6, human FcγRIIb extracellular domain with C-terminal His-tag (human, UniProt P31994 43-217).
T6 construct: also called human FcgRIIb; FcgRIIb
T6 sequence: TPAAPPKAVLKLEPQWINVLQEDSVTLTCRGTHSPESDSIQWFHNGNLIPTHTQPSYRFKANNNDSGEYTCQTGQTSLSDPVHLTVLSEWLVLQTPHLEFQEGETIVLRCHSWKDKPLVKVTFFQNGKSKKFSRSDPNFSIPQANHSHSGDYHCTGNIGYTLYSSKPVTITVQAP

In assay [7] the target is T7, human FcγRIIaR extracellular domain with C-terminal His-tag (human, UniProt P12318 34-217).
T7 construct: also called human FcγRIIa (type R); FcgRIIaR
T7 chain: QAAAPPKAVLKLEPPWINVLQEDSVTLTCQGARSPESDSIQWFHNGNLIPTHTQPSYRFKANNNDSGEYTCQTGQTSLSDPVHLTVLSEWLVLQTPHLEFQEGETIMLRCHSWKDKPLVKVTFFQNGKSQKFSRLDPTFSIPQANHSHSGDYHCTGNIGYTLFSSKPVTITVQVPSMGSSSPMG

The target of assay [8] is T8, cynomolgus monkey FcγRIIa1 extracellular domain with C-terminal His-tag (cynomolgus monkey).
T8 construct: also called cyno FcγRIIa1; FcgRIIa1
T8 chain: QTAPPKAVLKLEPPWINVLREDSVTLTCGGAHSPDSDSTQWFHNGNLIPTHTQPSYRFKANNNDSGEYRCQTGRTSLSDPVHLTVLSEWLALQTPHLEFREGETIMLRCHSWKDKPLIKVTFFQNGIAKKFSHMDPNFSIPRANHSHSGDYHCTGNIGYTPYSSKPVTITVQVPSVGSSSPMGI

B1: M103205H795-MY213 (heavy chain) with M103202L889-SK1 (light chain) (antibody, human IgG1, kappa, name in EU numbering)
heavy: QVTLKESGPVLVKPTETLTLTCTVSGIDLSHDDISWVRQAPGKGLEWVGIISYAGSTYYASWAKGRLTISKDTSKNQVVLTMTNMDPVDTATYYCARGVPAYSHGGDLWGQGTLVTVSSASTKGPSVFPLAPSSKSTSGGTAALGCLVKDYFPEPVTVSWNSGALTSGVHTFPAVLQSSGLYSLSSVVTVPSSSLGTQTYICNVNHKPSNTKVDKKVEPKSCDKTHTCPPCPAPELLNGPSVFLFPPKPKDTLMISRTPEVTCVVVDVSDEDPEVKFNWYVDGVEVHNAKTKPREEQYNSTYRVVSVLTVLHQDWLNGKEYKCKVSNKALPKPIEKTISKAKGQPREPQVYTLPPSREEMTKNQVSLTCLVKGFYPSDIAVEWESNGQPENNYKTTPKVLDSDGSFFLYSKLTVDKSRWQQGNVFSCSVMHEALHNHYTQKSLSLSP
light: DIVMTQSPATLSLSPGERATLSCTSSQSVYHANWLSWFQQKPGQPPKLLIYWASTLAYGVPSRFSGSGSGTDFTLTISSLQPEDAATYYCAGGYGGGRYAFGQGTKVEIKRTVAAPSVFIFPPSDEQLKSGTASVVCLLNNFYPREAKVQWKVDNALQSGNSQESVTEQDSKDSTYSLSSTLTLSKADYEKHKVYACEVTHQGLSSPVTKSFNRGEC
notes: Substitutions introduced into M103205H795-SG1; positions in EU numbering
B1: the “KD fold (SG1 = 1)” value in assay [1] came out at 9.8 fold; in assay [2], 11.3 fold; in assay [3] it was 0.19 fold; in assay [4], 0.07 fold.

B2: M103205H795-MY308 (heavy chain) with M103202L889-SK1 (light chain) (antibody, human IgG1, kappa, name in EU numbering)
heavy: QVTLKESGPVLVKPTETLTLTCTVSGIDLSHDDISWVRQAPGKGLEWVGIISYAGSTYYASWAKGRLTISKDTSKNQVVLTMTNMDPVDTATYYCARGVPAYSHGGDLWGQGTLVTVSSASTKGPSVFPLAPSSKSTSGGTAALGCLVKDYFPEPVTVSWNSGALTSGVHTFPAVLQSSGLYSLSSVVTVPSSSLGTQTYICNVNHKPSNTKVDKKVEPKSCDKTHTCPPCPAPELLTGPSVFLFPPKPKDTLMISRTPEVTCVVVDVSEEDPEVKFNWYVDGVEVHNAKTKPREEQYNSTYRVVSVLTVLHQDWLNGKEYKCKVSNKALPKPIEKTISKAKGQPREPQVYTLPPSREEMTKNQVSLTCLVKGFYPSDIAVEWESNGQPENNYKTTPPVLDSDGSFFLYSKLTVDKSRWQQGNVFSCSVMHEALHNHYTQKSLSLSP
light: DIVMTQSPATLSLSPGERATLSCTSSQSVYHANWLSWFQQKPGQPPKLLIYWASTLAYGVPSRFSGSGSGTDFTLTISSLQPEDAATYYCAGGYGGGRYAFGQGTKVEIKRTVAAPSVFIFPPSDEQLKSGTASVVCLLNNFYPREAKVQWKVDNALQSGNSQESVTEQDSKDSTYSLSSTLTLSKADYEKHKVYACEVTHQGLSSPVTKSFNRGEC
notes: as for B1
For B2, the “KD fold (SG1 = 1)” value was found to be 1.1 fold in assay [1], 1.5 fold in assay [5], 0.16 fold in assay [3] and 0.09 fold in assay [4].

B3: M103205H795-MY272 (heavy chain) with M103202L889-SK1 (light chain) (antibody, human IgG1, kappa, name in EU numbering)
heavy: QVTLKESGPVLVKPTETLTLTCTVSGIDLSHDDISWVRQAPGKGLEWVGIISYAGSTYYASWAKGRLTISKDTSKNQVVLTMTNMDPVDTATYYCARGVPAYSHGGDLWGQGTLVTVSSASTKGPSVFPLAPSSKSTSGGTAALGCLVKDYFPEPVTVSWNSGALTSGVHTFPAVLQSSGLYSLSSVVTVPSSSLGTQTYICNVNHKPSNTKVDKKVEPKSCDKTHTCPPCPAPELLQGPSVFLFPPKPKDTLMISRTPEVTCVVVDVSDEDPEVKFNWYVDGVEVHNAKTKPREEQYNSTYRVVSVLTVLHQDWLNGKEYKCKVSNKALPKPIEKTISKAKGQPREPQVYTLPPSREEMTKNQVSLTCLVKGFYPSDIAVEWESNGQPENNYKTTPKVLDSDGSFFLYSKLTVDKSRWQQGNVFSCSVMHEALHNHYTQKSLSLSP
light: DIVMTQSPATLSLSPGERATLSCTSSQSVYHANWLSWFQQKPGQPPKLLIYWASTLAYGVPSRFSGSGSGTDFTLTISSLQPEDAATYYCAGGYGGGRYAFGQGTKVEIKRTVAAPSVFIFPPSDEQLKSGTASVVCLLNNFYPREAKVQWKVDNALQSGNSQESVTEQDSKDSTYSLSSTLTLSKADYEKHKVYACEVTHQGLSSPVTKSFNRGEC
notes: as for B1
Take B3: the results for the “KD fold (SG1 = 1)” value in assay [3] and in assay [6] were 1.24 fold and 3.8 fold, respectively.

B4: M103205H795-MY228 (heavy chain) with M103202L889-SK1 (light chain) (antibody, human IgG1, kappa, name in EU numbering)
heavy: QVTLKESGPVLVKPTETLTLTCTVSGIDLSHDDISWVRQAPGKGLEWVGIISYAGSTYYASWAKGRLTISKDTSKNQVVLTMTNMDPVDTATYYCARGVPAYSHGGDLWGQGTLVTVSSASTKGPSVFPLAPSSKSTSGGTAALGCLVKDYFPEPVTVSWNSGALTSGVHTFPAVLQSSGLYSLSSVVTVPSSSLGTQTYICNVNHKPSNTKVDKKVEPKSCDKTHTCPPCPAPELLGYPSVFLFPPKPKDTLMISRTPEVTCVVVDVSDEDPEVKFNWYVDGVEVHNAKTKPREELYNSTYRVVSVLTVLHQDWLNGKEYKCKVSNKALPKPIEKTISKAKGQPREPQVYTLPPSREEMTKNQVSLTCLVKGFYPSDIAVEWESNGQPENNYKTTPPVLDSDGSFFLYSKLTVDKSRWQQGNVFSCSVMHEALHNHYTQKSLSLSP
light: DIVMTQSPATLSLSPGERATLSCTSSQSVYHANWLSWFQQKPGQPPKLLIYWASTLAYGVPSRFSGSGSGTDFTLTISSLQPEDAATYYCAGGYGGGRYAFGQGTKVEIKRTVAAPSVFIFPPSDEQLKSGTASVVCLLNNFYPREAKVQWKVDNALQSGNSQESVTEQDSKDSTYSLSSTLTLSKADYEKHKVYACEVTHQGLSSPVTKSFNRGEC
notes: as for B1
With B4, the “KD fold (SG1 = 1)” value is 1.6 fold in assay [1], 0.04 fold in assay [3], 6.9 fold in assay [7] and 0.01 fold in assay [4].

B5: M103205H795-MY219 (heavy chain) with M103202L889-SK1 (light chain) (antibody, human IgG1, kappa, name in EU numbering)
heavy: QVTLKESGPVLVKPTETLTLTCTVSGIDLSHDDISWVRQAPGKGLEWVGIISYAGSTYYASWAKGRLTISKDTSKNQVVLTMTNMDPVDTATYYCARGVPAYSHGGDLWGQGTLVTVSSASTKGPSVFPLAPSSKSTSGGTAALGCLVKDYFPEPVTVSWNSGALTSGVHTFPAVLQSSGLYSLSSVVTVPSSSLGTQTYICNVNHKPSNTKVDKKVEPKSCDKTHTCPPCPAPELLGYPSVFLFPPKPKDTLMISRTPEVTCVVVDVSDEDPEVKFNWYVDGVEVHNAKTKPREEQYNSTYRVVSVLTVLHQDWLNGKEYKCKVSNKALPKPIEKTISKAKGQPREPQVYTLPPSREEMTKNQVSLTCLVKGFYPSDIAVEWESNGQPENNYKTTPPVLDSDGSFFLYSKLTVDKSRWQQGNVFSCSVMHEALHNHYTQKSLSLSP
light: DIVMTQSPATLSLSPGERATLSCTSSQSVYHANWLSWFQQKPGQPPKLLIYWASTLAYGVPSRFSGSGSGTDFTLTISSLQPEDAATYYCAGGYGGGRYAFGQGTKVEIKRTVAAPSVFIFPPSDEQLKSGTASVVCLLNNFYPREAKVQWKVDNALQSGNSQESVTEQDSKDSTYSLSSTLTLSKADYEKHKVYACEVTHQGLSSPVTKSFNRGEC
notes: as for B1
For the molecule B5, the “KD fold (SG1 = 1)” value in assay [8] was 0.9 fold; in assay [3], 0.06 fold; in assay [4] it was 0.01 fold.
